What was measured:
[1] = target: ASK1 (apoptosis signal-regulating kinase), full-length (UniProt Q99683); experiment: cell-based or functional assay
[2] = target: T1, ASK1 (apoptosis signal-regulating kinase), full-length, Q99683
T1 chain: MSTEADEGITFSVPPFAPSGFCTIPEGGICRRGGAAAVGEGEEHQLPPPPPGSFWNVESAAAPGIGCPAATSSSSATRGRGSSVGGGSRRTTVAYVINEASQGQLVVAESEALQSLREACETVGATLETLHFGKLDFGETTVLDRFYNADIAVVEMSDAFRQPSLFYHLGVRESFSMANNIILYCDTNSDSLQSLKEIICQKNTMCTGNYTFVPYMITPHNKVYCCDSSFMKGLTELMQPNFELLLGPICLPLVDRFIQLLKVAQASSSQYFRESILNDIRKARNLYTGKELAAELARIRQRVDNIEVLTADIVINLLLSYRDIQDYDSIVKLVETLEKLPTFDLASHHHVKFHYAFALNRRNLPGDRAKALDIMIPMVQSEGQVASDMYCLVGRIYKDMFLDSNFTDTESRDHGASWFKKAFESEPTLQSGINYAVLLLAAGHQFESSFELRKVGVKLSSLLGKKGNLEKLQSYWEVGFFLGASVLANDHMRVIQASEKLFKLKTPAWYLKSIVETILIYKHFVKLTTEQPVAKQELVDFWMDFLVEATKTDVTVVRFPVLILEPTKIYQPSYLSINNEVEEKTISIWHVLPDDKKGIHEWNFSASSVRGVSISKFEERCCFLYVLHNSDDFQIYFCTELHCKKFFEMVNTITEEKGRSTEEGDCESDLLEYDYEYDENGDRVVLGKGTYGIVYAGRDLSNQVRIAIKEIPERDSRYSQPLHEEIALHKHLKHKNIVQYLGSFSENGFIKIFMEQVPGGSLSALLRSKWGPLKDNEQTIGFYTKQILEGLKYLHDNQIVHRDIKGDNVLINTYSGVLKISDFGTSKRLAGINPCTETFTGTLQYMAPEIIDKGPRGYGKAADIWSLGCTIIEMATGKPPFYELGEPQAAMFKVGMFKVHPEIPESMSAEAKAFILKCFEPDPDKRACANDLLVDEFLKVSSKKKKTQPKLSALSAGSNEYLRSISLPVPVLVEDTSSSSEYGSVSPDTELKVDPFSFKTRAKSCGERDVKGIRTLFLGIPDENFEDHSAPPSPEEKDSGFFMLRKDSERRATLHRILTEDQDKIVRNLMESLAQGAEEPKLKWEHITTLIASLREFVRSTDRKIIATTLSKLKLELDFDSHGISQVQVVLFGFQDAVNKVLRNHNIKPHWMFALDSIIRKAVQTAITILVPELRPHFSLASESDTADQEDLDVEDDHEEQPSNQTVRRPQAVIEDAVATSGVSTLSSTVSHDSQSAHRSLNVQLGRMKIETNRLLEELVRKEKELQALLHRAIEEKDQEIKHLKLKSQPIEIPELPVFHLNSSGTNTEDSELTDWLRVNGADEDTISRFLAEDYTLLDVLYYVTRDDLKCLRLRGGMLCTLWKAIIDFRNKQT

[3] = target: T2, N-terminal 236 aa extension of human glutaminyl-tRNA synthetase, P47897
T2 chain: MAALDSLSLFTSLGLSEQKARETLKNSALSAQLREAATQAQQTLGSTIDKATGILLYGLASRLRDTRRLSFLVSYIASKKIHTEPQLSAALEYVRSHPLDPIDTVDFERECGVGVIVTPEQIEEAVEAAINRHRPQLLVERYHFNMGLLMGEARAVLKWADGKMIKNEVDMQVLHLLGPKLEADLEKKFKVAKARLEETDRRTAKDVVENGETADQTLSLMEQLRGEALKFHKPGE

[4] = target: constitutive active mutant of Daxx, C-terminal 242 aa, Q9UER7
Chain of constitutive active mutant of Daxx, C-terminal 242 aa, Q9UER7 (Q9UER7 whole entry, looked up, change not shown): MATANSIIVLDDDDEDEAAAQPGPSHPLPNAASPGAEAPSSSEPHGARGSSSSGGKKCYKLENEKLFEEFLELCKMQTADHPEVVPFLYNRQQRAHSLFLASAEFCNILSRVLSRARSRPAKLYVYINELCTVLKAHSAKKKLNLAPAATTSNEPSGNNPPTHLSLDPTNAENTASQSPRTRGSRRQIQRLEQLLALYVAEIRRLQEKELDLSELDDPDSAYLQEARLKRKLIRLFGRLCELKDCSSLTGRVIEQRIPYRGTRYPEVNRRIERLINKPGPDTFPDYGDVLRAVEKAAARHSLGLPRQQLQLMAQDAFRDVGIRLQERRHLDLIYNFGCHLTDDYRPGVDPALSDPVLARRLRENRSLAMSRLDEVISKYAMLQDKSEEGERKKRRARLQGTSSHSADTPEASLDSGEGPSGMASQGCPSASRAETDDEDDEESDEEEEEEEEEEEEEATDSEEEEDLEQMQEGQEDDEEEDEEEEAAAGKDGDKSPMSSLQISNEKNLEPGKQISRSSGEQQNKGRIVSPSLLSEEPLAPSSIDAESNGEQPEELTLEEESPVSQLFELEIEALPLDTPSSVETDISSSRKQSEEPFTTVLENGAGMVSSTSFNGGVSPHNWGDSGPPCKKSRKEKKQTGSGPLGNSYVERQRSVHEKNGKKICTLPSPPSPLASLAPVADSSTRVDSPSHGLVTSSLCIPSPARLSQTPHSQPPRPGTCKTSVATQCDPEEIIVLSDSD

Molecule: constitutive active mutant of Daxx, C-terminal 242 aa (from UniProt Q9UER7 499-740)
- apoptotic cells (HeLa, beta-galactosidase co-transfection, apoptotic morphology) [1]: 11%

B1: C-terminal 539 aa catalytic domain of human glutaminyl-tRNA synthetase (protein)
chain: NYKTPGYVVTPHTMNLLKQHLEITGGQVRTRFPPEPNGILHIGHAKAINFNFGYAKANNGICFLRFDDTNPEKEEAKFFTAICDMVAWLGYTPYKVTYASDYFDQLYAWAVELIRRGLAYVCHQRGEELKGHNTLPSPWRDRPMEESLLLFEAMRKGKFSEGEATLRMKLVMEDGKMDPVAYRVKYTPHHRTGDKWCIYPTYDYTHCLCDSIEHITHSLCTKEFQARRSSYFWLCNALDVYCPVQWEYGRLNLHYAVVSKRKILQLVATGAVRDWDDPRLFTLTALRRRGFPPEAINNFCARVGVTVAQTTMEPHLLEACVRDVLNDTAPRAMAVLESLRVIITNFPAAKSLDIQVPNFPADETKGFHQVPFAPIVFIERTDFKEEPEPGFKRLAWGQPVGLRHTGYVIELQHVVKGPSGCVESLEVTCRRADAGEKPKAFIHWVSQPLMCEVRLYERLFQHKNPEDPTEVPGGFLSDLNLASLHVVDAALVDCSVALAKPFDKFQFERLGYFSVDPDSHQGKLVFNRTVTLKEDPGKV
- kinase activity of ASK1 (MBP phosphorylation, immunocomplex kinase assay) [2]: The ASK1 activity was inhibited by the expression of QRS-F and -C but not of QRS -N

B2: human glutaminyl-tRNA synthetase, full-length (protein)
chain: MAALDSLSLFTSLGLSEQKARETLKNSALSAQLREAATQAQQTLGSTIDKATGILLYGLASRLRDTRRLSFLVSYIASKKIHTEPQLSAALEYVRSHPLDPIDTVDFERECGVGVIVTPEQIEEAVEAAINRHRPQLLVERYHFNMGLLMGEARAVLKWADGKMIKNEVDMQVLHLLGPKLEADLEKKFKVAKARLEETDRRTAKDVVENGETADQTLSLMEQLRGEALKFHKPGENYKTPGYVVTPHTMNLLKQHLEITGGQVRTRFPPEPNGILHIGHAKAINFNFGYAKANNGICFLRFDDTNPEKEEAKFFTAICDMVAWLGYTPYKVTYASDYFDQLYAWAVELIRRGLAYVCHQRGEELKGHNTLPSPWRDRPMEESLLLFEAMRKGKFSEGEATLRMKLVMEDGKMDPVAYRVKYTPHHRTGDKWCIYPTYDYTHCLCDSIEHITHSLCTKEFQARRSSYFWLCNALDVYCPVQWEYGRLNLHYAVVSKRKILQLVATGAVRDWDDPRLFTLTALRRRGFPPEAINNFCARVGVTVAQTTMEPHLLEACVRDVLNDTAPRAMAVLESLRVIITNFPAAKSLDIQVPNFPADETKGFHQVPFAPIVFIERTDFKEEPEPGFKRLAWGQPVGLRHTGYVIELQHVVKGPSGCVESLEVTCRRADAGEKPKAFIHWVSQPLMCEVRLYERLFQHKNPEDPTEVPGGFLSDLNLASLHVVDAALVDCSVALAKPFDKFQFERLGYFSVDPDSHQGKLVFNRTVTLKEDPGKV
- ASK1 kinase activity enhanced by Daxx-CA (GST-SEK1 as substrate) [2]: QRS inhibited the ASK1 activity enhanced by Daxx
- kinase activity of ASK1 (MBP phosphorylation, immunocomplex kinase assay) [2]: The ASK1 activity was inhibited by the expression of QRS-F and -C but not of QRS -N

B3: ASK1 (apoptosis signal-regulating kinase), full-length (protein)
chain: MSTEADEGITFSVPPFAPSGFCTIPEGGICRRGGAAAVGEGEEHQLPPPPPGSFWNVESAAAPGIGCPAATSSSSATRGRGSSVGGGSRRTTVAYVINEASQGQLVVAESEALQSLREACETVGATLETLHFGKLDFGETTVLDRFYNADIAVVEMSDAFRQPSLFYHLGVRESFSMANNIILYCDTNSDSLQSLKEIICQKNTMCTGNYTFVPYMITPHNKVYCCDSSFMKGLTELMQPNFELLLGPICLPLVDRFIQLLKVAQASSSQYFRESILNDIRKARNLYTGKELAAELARIRQRVDNIEVLTADIVINLLLSYRDIQDYDSIVKLVETLEKLPTFDLASHHHVKFHYAFALNRRNLPGDRAKALDIMIPMVQSEGQVASDMYCLVGRIYKDMFLDSNFTDTESRDHGASWFKKAFESEPTLQSGINYAVLLLAAGHQFESSFELRKVGVKLSSLLGKKGNLEKLQSYWEVGFFLGASVLANDHMRVIQASEKLFKLKTPAWYLKSIVETILIYKHFVKLTTEQPVAKQELVDFWMDFLVEATKTDVTVVRFPVLILEPTKIYQPSYLSINNEVEEKTISIWHVLPDDKKGIHEWNFSASSVRGVSISKFEERCCFLYVLHNSDDFQIYFCTELHCKKFFEMVNTITEEKGRSTEEGDCESDLLEYDYEYDENGDRVVLGKGTYGIVYAGRDLSNQVRIAIKEIPERDSRYSQPLHEEIALHKHLKHKNIVQYLGSFSENGFIKIFMEQVPGGSLSALLRSKWGPLKDNEQTIGFYTKQILEGLKYLHDNQIVHRDIKGDNVLINTYSGVLKISDFGTSKRLAGINPCTETFTGTLQYMAPEIIDKGPRGYGKAADIWSLGCTIIEMATGKPPFYELGEPQAAMFKVGMFKVHPEIPESMSAEAKAFILKCFEPDPDKRACANDLLVDEFLKVSSKKKKTQPKLSALSAGSNEYLRSISLPVPVLVEDTSSSSEYGSVSPDTELKVDPFSFKTRAKSCGERDVKGIRTLFLGIPDENFEDHSAPPSPEEKDSGFFMLRKDSERRATLHRILTEDQDKIVRNLMESLAQGAEEPKLKWEHITTLIASLREFVRSTDRKIIATTLSKLKLELDFDSHGISQVQVVLFGFQDAVNKVLRNHNIKPHWMFALDSIIRKAVQTAITILVPELRPHFSLASESDTADQEDLDVEDDHEEQPSNQTVRRPQAVIEDAVATSGVSTLSSTVSHDSQSAHRSLNVQLGRMKIETNRLLEELVRKEKELQALLHRAIEEKDQEIKHLKLKSQPIEIPELPVFHLNSSGTNTEDSELTDWLRVNGADEDTISRFLAEDYTLLDVLYYVTRDDLKCLRLRGGMLCTLWKAIIDFRNKQT
- kinase activity of ASK1 (MBP phosphorylation, immunocomplex kinase assay) [3]: The ASK1 activity was inhibited by the expression of QRS-F and -C but not of QRS -N
- ASK1 kinase activity (GST-SEK1 as substrate) [4]: The active mutant of Daxx (Daxx-CA) activated ASK1

Source: US6548060 (dated 2003)
